Consider four substances from US10400022B2, “Neuropilin-1 specific binding peptide, fusion protein fused with same, and use thereof” (AJOU UNIVERSITY INDUSTRY-ACADEMIC COOPERATION FOUNDATION, priority 2015, dated 2019).

Where no end group is shown, it is not given here.

For experiment [1], the system named is A431 cells expressing neuropilin-1. As to the kind of experiment: Immunohistochemistry of tumor tissue penetration in A431 xenograft. It is filed as in vivo, Balb/c nude mice. As to conditions: 10 mg/kg intravenously, 15 hours after injection. Here is the method:
At 15 hours after injection, the tumor was extracted from the mice and subjected to immunohistochemistry. The extracted tumor tissue was sectioned to a thickness of 20 μm by a frozen-section method, and the blood vessels were stained with the primary antibody CD31 antibody (BD Pharmingen) and TRITC (red fluorescence)-labeled secondary antibody that recognizes the same. In addition, to observe the distribution of the Fc-TPP1, Fc-TPP8 and Fc-TPP11 fusion proteins in the tissue, an FITC (green fluorescence)-labeled antibody that recognizes Fc was used.

The subject of experiment [2] is human umbilical vein endothelial cells (HUVECs). Put plainly: Transwell assay of penetration of vascular endothelial cells (dextran-FITC). The class given is cell-based. As to conditions: 1 μM for 30 minutes (VEGF165A about 1.3 nM); dextran-FITC fluorescence in lower chamber. The method, then: Specifically, 5×10^4 human umbilical vein endothelial cells (HUVECs) were seeded into the upper chamber of a transwell plate (Corning) and incubated in EGM2 for 3 days under the conditions of 37° C. and 5% CO2. […] Then, 50 μl of dextran-FITC (Sigma) was added to the upper chamber. After 30 minutes, based on the principle according to which the fluorescent substance would be observed when penetration into the vascular endothelial cells was increased, the medium was sampled from the lower chamber and the fluorescence thereof was measured.

The next experiment concerns VE-cadherin. As to the kind of experiment: Western blot of VE-cadherin in HUVEC. The class given is cell-based, human. Here is the method:
Specifically, 5×10^5 HUVEC cells were seeded into each well of a 6-well plate and incubated for 24 hours, […] constant Fc region and the selected peptide that binds specifically to NRP1, for 10 minutes, followed by Western blot analysis. After SDS-PAGE, the gel was transferred to a PVDF membrane, and detection was performed using primary antibodies (SantaCruz) that recognize VE-cadherin and β-actin and using HRP-conjugated secondary antibody (SantaCruz), and analysis was performed using ImageQuant LAS4000 mini (GE Healthcare).
For orientation: In western blotting, separated proteins are transferred to a membrane and probed.

In the next experiment the test system is E-cadherin. As to the kind of experiment: Western blot of E-cadherin in FaDu cells. It is filed as cell-based. As to conditions: human head and neck cancer FaDu cells. The method, then: Specifically, 5×10^5 HUVEC cells were seeded into each well of a 6-well plate and incubated for 24 hours, and then treated with 0.1 μM of the fusion protein of the antibody heavy-chain constant Fc region and the selected peptide that binds specifically to NRP1, for 10 minutes, followed by Western blot analysis. After SDS-PAGE, the gel was transferred to a PVDF membrane, and detection was performed using primary antibodies (SantaCruz) that recognize VE-cadherin and β-actin and using HRP-conjugated secondary antibody (SantaCruz), and analysis was performed using ImageQuant LAS4000 mini (GE Healthcare).
In order to examine whether the Fc-TPP1, Fc-TPP8 and Fc-TPP11 fusion proteins also have an enhanced ability to penetrate cancer cells, a change in E-cadherin in human head and neck cancer FaDu cells expressing NRP1 was analyzed by Western blot analysis under the same conditions as described above.

Experiment [3] deals with T1, NRP1 displayed on the human umbilical vein endothelial cell (HUVEC) surface (Homo sapiens, UniProt O14786).
T1 construct: endogenous in cells; host or cells: HUVEC
Put plainly: Confocal co-localization with NRP1 on HUVEC surface. The class given is cell-based. As to conditions: 1 μM, 30 minutes, 4° C., confocal microscopy. Here is the method:
In an experiment for biological identification of the peptides that binds specifically to NRP1, human umbilical vein endothelial cells (HUVECs) overexpressing NRP1 were used.
Specifically, 5×10^4 HUVEC cells were added to each well of a 24-well plate and incubated in 0.5 ml of EGM2 (Endothelial growth medium, Promocell) medium for 24 hours under the conditions of 5% CO2 and 37° C. […] Next, the medium was removed, and each well was washed with cold PBS. Then, the fusion protein wherein the selected peptide that binds specifically to NRP1 is fused to the antibody heavy-chain constant region was stained with FITC (green fluorescence)-labeled antibody (Sigma) that specifically recognizes Fc, and NRP1 was stained with primary antibody (Abcam) that recognizes NRP1 and with TRITC (red fluorescence)-labeled secondary antibody. The nucleus was stained (blue fluorescence) with DAPI and analyzed by confocal microscopy.

Experiment [4] deals with T2, NRP1-b1b2 (273-586) protein (Homo sapiens, UniProt O14786).
T2 construct: made in house
As to the kind of experiment: Competitive ELISA with VEGF165A / RPARPAR on NRP1-b1b2. It is filed as binding. Here is the method: In order to evaluate competitive binding of the TPP11 peptide, which binds specifically to NRP1 without binding to NRP2, and VEGF165A and a RPARPAR peptide, known to bind to the arginine-binding pocket of the NRP1-b1 domain, competitive ELISA was performed.
Specifically, binding NRP1-b1b2 (273-586) protein to each well of a 96-well EIA/RIA plate or a 96-well EIA/RIA black plate (COSTAR Corning In., USA) at room temperature for […], is followed by washing three times with 0.1% PBST (0.1% Tween20, pH 7.4, 137 mM NaCl, 10 mM Phosphate, 2.7 mM KCl, SIGMA-ALDRICH co., USA) for 10 minutes. After binding with 5% skim milk (5% Skim milk, pH 7.4, 137 mM NaCl, 10 mM Phosphate, 2.7 mM KCl, SIGMA-ALDRICH co., USA) for 1 hour, each well was washed three times with 0.1% PBST (0.1% Tween20, pH 7.4, 137 mM NaCl, 10 mM Phosphate, 2.7 mM KCl, SIGMA-ALDRICH co., USA) for 10 minutes. […] Then, each mixture was incubated with AP-conjugated anti-human antibody (alkaline phosphatase-conjugated anti-human mAb, Sigma, USA), and then reacted with pNPP ([…], SIGMA-ALDRICH co., USA), and the absorbance at 405 nm was measured.

The test system of experiment [5] is VEGF165A-induced angiogenesis. As to the kind of experiment: In vivo matrigel plug assay. As to conditions: 200 μg in matrigel plug with A431 cells, 8 days. Further details: species or system Balb/c nude mice. The method, then:
Additionally, in order to examine anti-angiogenesis activity in vivo, a matrigel plug assay was performed. […] After 8 days, the matrigel plug was extracted, imaged (FIG. 15(B)), and then sectioned to a thickness of 20 μm by a frozen-section method, and subjected to immunohistochemistry. The blood vessels were stained with the primary antibody CD31 and a TRITC (red fluorescence)-labeled secondary antibody recognizing the same, and the density of the blood vessels was measured.

In the next experiment the target is T3, biotinylated NRP1-b1b2 (Homo sapiens, UniProt O14786).
T3 construct: biotin (chemical label on amines, Sulfo-NHS-LC-biotin); made in house
Put plainly: FACS of yeast surface-displayed clones binding biotinylated NRP1-b1b2. As to conditions: yeast surface display, compared with A22p. The text has this: […] In addition, in the MACS and FACS processes, non-biotinylated NRP2-b1b2 was used as a competitive protein for biotinylated NRP1-b1b2 at a 10-fold higher concentration, and individual clones that bind to NRP1-b1b2 were selected.

Experiment [6] deals with T2, NRP1-b1b2 (273-586) protein. As to the kind of experiment: ELISA binding to NRP1-b1b2. As to conditions: synthetic peptide not fused to Fc, 100 nM. Here is the method: The binding affinities of purified Fc-TPP1, Fc-TPP8 and Fc-TPP11 fusion proteins for the b1b2 domains of NRP1 and NRP2 were analyzed by ELISA (Enzyme Linked Immunosorbent Assay).
To examine specificity for NRP1, the control VEGF165A and Fc, A22p, and each of the fusion proteins wherein the selected peptide that binds specifically to NRP1 is fused to the antibody heavy-chain constant Fc region, was biotinylated using a NHS-biotin kit (SIGMA-ALDRICH co., USA).
1 μg of each of NRP1-b1b2 (273-586) protein, NRP2-b1b2 (275-595) protein and the control group VEGFR2 (46-753) was immobilized in each well of a 96-well EIA/RIA plate (COSTAR Corning In., USA) at room temperature for 1 hour, and then washed three times with 0.1% PBST (0.1% Tween20, pH 7.4, 137 mM NaCl, 10 mM Phosphate, 2.7 mM KCl, SIGMA-ALDRICH co., USA) for 10 minutes. After binding with 5% skim milk (5% Skim milk, pH 7.4, 137 mM NaCl, 10 mM Phosphate, 2.7 mM KCl, SIGMA-ALDRICH co., USA) for 1 hour, each well was washed three times with 0.1% PBST (0.1% Tween20, pH 7.4, 137 mM NaCl, 10 mM Phosphate, 2.7 mM KCl, SIGMA-ALDRICH co., USA) for 10 minutes. […] Each well was bound with AP-conjugated anti-biotin antibody (alkaline phosphatase-conjugated anti-biotin mAb, Sigma, USA), and then reacted with pNPP ([…], SIGMA-ALDRICH co., USA), and the absorbance at 405 nm was measured.
(In general: In an ELISA, binding on a coated surface is turned into a signal by an enzyme label.)

For the substance “Fc-A22p: control Fc fusion of A22p peptide (HTPGNSNKWKHLQENKKGRPRR) that binds to both NRP1 and NRP2 (also: fused to Fc, not in chain)”, in experiment [1], the “tumor tissue accumulation and penetration” value was “selectively reached tumor tissue”. In experiment [2], the “ability to penetrate vascular endothelial cells” value is listed as “had an increased ability to penetrate vascular endothelial cells”. The “change in VE-cadherin at 1 μM” value in the experiment with VE-cadherin (1 μM) was “VE-cadherin significantly decreased”. Also, the “change in VE-cadherin” value in the experiment on VE-cadherin (10 minutes) is on record as “a decrease in VE-cadherin was observed”. In addition, in the experiment on E-cadherin, the “change in E-cadherin” value was “induced a decrease in E-cadherin”. The “binding to NRP1 on the HUVEC cell surface” value in experiment [3] is “did bind to NRP1 on the HUVEC cell surface”. For the same substance, in [4] (VEGF165A 25 nM to 0.02 nM), the “binding to NRP1-b1b2 competitively with VEGF165A” value is listed as “overlapped a portion of NRP1 to which VEGF165A did bind”. In experiment [5], the “VEGF165A-induced angiogenesis (density of blood vessels, CD31)” value is on record as “inhibited VEGF165A-induced angiogenesis in living mice”.

In the case of “TPP1: NRP1-targeting peptide HTPGNSNQFVLTSTRPPR, SEQ ID NO: 1 (Synthetic construct (TPP1))”, in the experiment with biotinylated NRP1-b1b2, the “binding to 100 nM biotinylated NRP1-b1b2 (mean fluorescence intensity)” value (“binding to 100 nM biotinylated NRP1-b1b2” below) is reported as “showed higher mean fluorescence intensities”.

For the substance “TPP8: NRP1-targeting peptide HTPGIATRTPR, SEQ ID NO: 2 (Synthetic construct (TPP8))”, the “binding to 100 nM biotinylated NRP1-b1b2” value with biotinylated NRP1-b1b2 is “showed higher mean fluorescence intensities”.

Consider “TPP11: NRP1-targeting peptide HTPGNSKPTRTPRR, SEQ ID NO: 3 (Synthetic construct (TPP11))”, for which the “lower affinity than Fc-TPP11 for NRP1-b1b2 protein” value in experiment [6] is “at least 100 fold”. Further, in the experiment with biotinylated NRP1-b1b2, the “binding to 100 nM biotinylated NRP1-b1b2” value is “showed higher mean fluorescence intensities”. Moreover, the “competitive binding of synthesized peptide with RPARPAR peptide and VEGF165A” value in experiment [4] was “inhibited the binding of the RPARPAR peptide and VEGF165 to NRP1”.
